Laboratory results as given in patent US20250388696A1 (NAVIGO PROTEINS, published 2025).
Substitutions are numbered along the chain they refer to. Where no end group is shown, it is not given here.

T1: hFAP-Fc (human, UniProt Q12884 26-760, limits assumed)
T1 construct: also called Fc-tagged target (FAP)
T1 sequence (looked up): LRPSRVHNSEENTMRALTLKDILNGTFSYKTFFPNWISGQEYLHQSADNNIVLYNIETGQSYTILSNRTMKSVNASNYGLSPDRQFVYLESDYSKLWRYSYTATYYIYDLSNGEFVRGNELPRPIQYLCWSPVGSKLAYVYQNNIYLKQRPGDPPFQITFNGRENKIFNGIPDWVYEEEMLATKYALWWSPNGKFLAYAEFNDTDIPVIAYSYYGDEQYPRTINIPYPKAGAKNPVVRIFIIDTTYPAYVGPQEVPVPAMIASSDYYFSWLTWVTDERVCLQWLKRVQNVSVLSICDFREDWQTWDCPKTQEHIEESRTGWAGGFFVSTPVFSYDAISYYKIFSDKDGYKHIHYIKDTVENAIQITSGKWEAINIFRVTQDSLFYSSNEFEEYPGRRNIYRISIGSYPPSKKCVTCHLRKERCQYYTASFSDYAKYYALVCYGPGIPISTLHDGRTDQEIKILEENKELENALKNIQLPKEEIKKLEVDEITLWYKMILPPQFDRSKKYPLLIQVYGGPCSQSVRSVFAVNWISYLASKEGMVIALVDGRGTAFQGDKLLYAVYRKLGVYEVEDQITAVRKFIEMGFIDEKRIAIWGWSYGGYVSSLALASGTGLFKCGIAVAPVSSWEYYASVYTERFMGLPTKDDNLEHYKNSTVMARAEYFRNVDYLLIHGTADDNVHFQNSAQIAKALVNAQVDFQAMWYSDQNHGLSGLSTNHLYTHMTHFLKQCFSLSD

B1: fusion protein 217781 (designed binder, not shown: small tags and cut ends)
chain (part 1 of 2): not shown
chain (part 2 of 2): LAEAKVLALKELDKYGISNYYKNLINNAKTIEGVKALKEAIVAA
notes: also called CID 217781
B2: fusion protein 218466 (designed binder, not shown: small tags and cut ends)
chain (part 1 of 2): not shown
chain (part 2 of 2): B1 chain (part 2 of 2) with E39D, A40E
notes: also called CID 218466
B3: fusion protein 217787 (designed binder, not shown: small tags and cut ends)
chain (part 1 of 2): not shown
chain (part 2 of 2): LAEAKVLALKELDKYGISDFYKRLIDKAKTIEGVEALKDAILAA
notes: also called CID 217787
B4: fusion protein 218512 (designed binder, not shown: small tags and cut ends)
chain (part 1 of 2): not shown
chain (part 2 of 2): B1 chain (part 2 of 2) with I31V
notes: also called CID 218512
B5: fusion protein 218514 (designed binder, not shown: small tags and cut ends)
chain (part 1 of 2): not shown
chain (part 2 of 2): B1 chain (part 2 of 2) with K35E, E39D, V42L
notes: also called CID 218514
B6: fusion protein 218513 (designed binder, not shown: small tags and cut ends)
chain (part 1 of 2): not shown
chain (part 2 of 2): B1 chain (part 2 of 2) with I31V, K35E, V42L
notes: also called CID 218513
B7: Fusion proteins with albumin binding domain c42 (SEQ ID NO: 34) (designed binder, not shown: small tags and cut ends)
chain: B1 chain (part 2 of 2) with G33S, E39D, A40E
modifications: also: part of fusion protein, targeting moiety, linker, tag and order not given here
B8: Fusion proteins with albumin binding domain c49 (SEQ ID NO: 37) (designed binder, not shown: small tags and cut ends)
chain: B1 chain (part 2 of 2) with Y20D, K35E, E39D, V42L
modifications: also: part of fusion protein, targeting moiety, linker, tag and order not given here
B9: fusion protein 218467 (designed binder, not shown: small tags and cut ends)
chain (part 1 of 2): not shown
chain (part 2 of 2): LAEAKVLAIKELDKAGISNYYFNLINNAKTVEGVKDLKAQIVAA
notes: also called CID 218467
B10: fusion protein 218703 (designed binder, not shown: small tags and cut ends)
chain (part 1 of 2): not shown
chain (part 2 of 2): B1 chain (part 2 of 2) with E39A, A40Q
notes: also called CID 218703
B11: fusion protein 218692 (designed binder, not shown: small tags and cut ends)
chain (part 1 of 2): not shown
chain (part 2 of 2): B9 chain (part 2 of 2)
notes: also called CID 218692
B12: fusion protein 218687 (designed binder, not shown: small tags and cut ends)
chain (part 1 of 2): not shown
chain (part 2 of 2): B1 chain (part 2 of 2) with I31V
notes: also called CID 218687
B13: fusion protein 218708 (designed binder, not shown: small tags and cut ends)
chain (part 1 of 2): not shown
chain (part 2 of 2): LAEAKVLALKELDKYGISNYYKNLINNAKTVEGVKALKEAIVAALP
notes: also called CID 218708

Molecular target: T2, human serum albumin (human, UniProt P02768 25-609)
T2 construct: also called HSA
Test: SPR, HSA immobilised on the chip, pH 7.3, 1:1 Langmuir fit [continued]
Description: (§1) Recombinant protein A, HSA, MSA or target (either ED-B or Her2) was immobilized on a High Capacity Amine sensor chip (Bruker) after NHS/EDC activation with a Sierra SPR-32 system (Bruker). The chip was equilibrated with SPR running buffer (PBS 0.05%, Tween pH 7.3). Injection of ethanolamine after target immobilization was used to block free NHS groups. To determine the binding of fusion proteins to FAP, the Fc-tagged target was injected with 60 or 30 nM to Protein A coupled spots followed by the injection of fusion proteins.
(§2) Binding proteins were applied to the chip in serial dilutions with a flow rate of 30 μl/min. Upon binding, analyte accumulated on the surface increasing the refractive index. This change in the refractive index was measured in real time and plotted as response or resonance units versus time. The association was performed for 120 seconds and the dissociation for 180 seconds. After each run, the chip surface was regenerated with 30 μl regeneration buffer (10 mM glycine pH 2.0 or pH 1.5) and equilibrated with running buffer. Binding studies were carried out using the Sierra SPR-32 system (Bruker); data evaluation was operated via the Sierra Analyser software, provided by the manufacturer, by the use of the Langmuir 1:1 model (RI=0).

T2 sequence (P02768 25-609 limits assumed): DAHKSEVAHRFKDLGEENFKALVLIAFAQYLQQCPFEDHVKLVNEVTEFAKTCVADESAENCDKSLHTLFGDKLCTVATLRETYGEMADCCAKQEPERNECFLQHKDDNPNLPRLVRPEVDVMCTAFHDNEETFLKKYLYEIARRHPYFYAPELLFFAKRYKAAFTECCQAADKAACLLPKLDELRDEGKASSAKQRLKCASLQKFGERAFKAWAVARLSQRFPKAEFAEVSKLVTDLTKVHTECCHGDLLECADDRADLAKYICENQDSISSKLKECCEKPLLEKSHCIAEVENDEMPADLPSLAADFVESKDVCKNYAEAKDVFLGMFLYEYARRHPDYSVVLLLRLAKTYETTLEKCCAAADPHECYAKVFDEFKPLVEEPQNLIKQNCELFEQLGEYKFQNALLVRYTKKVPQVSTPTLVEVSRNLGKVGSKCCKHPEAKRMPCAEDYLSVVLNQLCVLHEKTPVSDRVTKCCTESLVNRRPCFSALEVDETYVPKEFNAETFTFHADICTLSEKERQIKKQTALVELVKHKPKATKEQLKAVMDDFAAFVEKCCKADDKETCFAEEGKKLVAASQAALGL

Row | Kd | Binder
1 | 2.9 nM | B1
2 | 6.3 nM | B2
3 | 0.6 nM | B3
4 | 1.8 nM | B4
5 | 1.8 nM | B5
6 | 1.9 nM | B6

Molecular target: T2, human serum albumin
Test: SPR, HSA immobilised
Description: as §1, §2

Row | Kd | Binder
7 | ≥ 100 nM | B7
8 | ≥ 100 nM | B8

Molecular target: T3, Her2-Fc (human, UniProt P04626 23-652)
T3 construct: Coated in ELISA
Test: ELISA on coated Her2-Fc; after 24 h in human serum at 37 C
Description: (§3) High binding plates (Greiner, 781061) were immobilized with 2.5 μg/ml hFAP-Fc or 1.2 μg/ml Her2-Fc over night at 4° C. Dilution series of 3 μM to 0.07 pM of fusion proteins with binding specifically to Her2 were incubated in 100% human serum or 100% mouse serum for 24 h at 37° C. Dilution series of 3 µM to 0.2 pM or 1 μM to 0.01 fM of fusion proteins with binding specifically to hFAP were incubated in 100% human serum or 100% mouse serum for 24 h at 37° C. ELISA-plates were washed three times with PBST (PBS+0.1% Tween) and blocked with 3% BSA/0.5% Tween/PBS up to 2 h at room temperature (rt). After preincubation for 0 h or 24 h in the presence of serum the dilution series were incubated on ELISA-plates for up to 1 h at rt. Wells were washed with PBST and incubated with biotinylated anti-ubiquitin-antibody (1:300) for up to 1 h at rt. The binding was visualized with Streptavidin-HRP (1:5.000).
(§4) The fusion proteins comprise the albumin binding domain (referred to as HED) and the targeting moiety.

Row | max binding after 24 h [%] | Binder
9 | 94.1% | B1
10 | 95.1% | B2
11 | 96.2% | B3
12 | 100% | B4
13 | 96.4% | B5
14 | 99% | B9
15 | 100% | B6

Molecular target: T3, Her2-Fc
Test: ELISA on coated Her2-Fc; KD 24 h against KD 0 h, human serum
Description: as §3, §4

Row | increase of KD vs target [fold] | Binder
16 | 1.29 fold | B1
17 | 0.93 fold | B2
18 | 0.63 fold | B3
19 | 1.58 fold | B4
20 | 1.06 fold | B5
21 | 1.05 fold | B9
22 | 1.27 fold | B6

Molecular target: T4, mouse serum albumin (mouse, UniProt P07724 25-608)
T4 construct: also called MSA
Test: SPR, MSA immobilised
Description: as §1, §2

Row | Kd | Binder
23 | ≥ 100 nM | B7
24 | ≥ 100 nM | B8

Molecular target: T3, Her2-Fc
Test: ELISA on coated Her2-Fc; 24 h in human serum at 37 C
Description: as §3, §4

Row | Kd | Binder
25 | 0.79 nM | B1
26 | 0.32 nM | B2
27 | 0.53 nM | B3
28 | 0.36 nM | B4
29 | 0.3 nM | B5
30 | 0.36 nM | B9
31 | 0.43 nM | B6

Molecular target: T5, Her2 expressed on Sk-Br-3 cells (human, UniProt P04626 23-1255)
T5 construct: whole, on cells; also called human epidermal growth factor receptor 2
Test: flow cytometry, dilution series on Sk-Br-3 cells
Description: Her2 expressing Sk-Br-3-cells and HEK293-hFAP overexpressing cells were thawed, washed with medium containing FCS, subsequently washed with FACS blocking buffer (PBS/0.1% Sodium Azide/3% FCS) and 100 μl seeded in 96-well round bottom plates with a density of 1×10⁶ cells/ml. Dilution series from 10 µM to 8.6 fM (CID 217781, CID 217787) and a dilution series of 3 µM to 0.2 μM (CID 218466, CID 218467, 218512, CID 218513, CID 218514, CID 218515, CID 218516) were incubated on Her2-expressing Sk-Br-3-cells and dilution series from 1 μM to 0.07 μM of fusion proteins 218690 and 218702 were incubated on hFAP-overexpressing HEK293-cell line for 45 min at 4° C. After centrifugation the supernatants were removed and cells were washed with FACS blocking buffer and 100 μl/well rabbit anti-Strep-Tag antibody (GenScript; A00626), 1:300 diluted in FACS blocking buffer were added. After removal of the primary antibody goat anti-rabbit IgG Alexa Fluor 488 antibody (Invitrogen; A4008) was applied in a 1:1000 dilution in FACS blocking buffer. Flow cytometry measurement was conducted on the Guava easyCyte 5HT device from Merck-Millipore at excitation wavelength 488 nm and emission wavelength 525/30 nm. The * in table 2 refers to a fusion protein with the albumin binding domain as dimer (homo-dimer) and/or the targeting moiety as dimer.

Row | Kd | Binder
32 | 2.05 nM | B1
33 | 2.69 nM | B2
34 | 2.17 nM | B3
35 | 1.72 nM | B4
36 | 2.19 nM | B5
37 | 3.81 nM | B9
38 | 2.48 nM | B6

Molecular target: T2, human serum albumin
Test: SPR, HSA immobilised on the chip, pH 7.3, 1:1 Langmuir fit
Description: as §1, §2

Row | Kd | Binder
39 | 5.9 nM | B10
40 | 5 nM | B11
41 | 0.9 nM | B12
42 | 7.3 nM | B13

Molecular target: T3, Her2-Fc
Test: ELISA on coated Her2-Fc; 24 h in mouse serum at 37 C
Description: as §3, §4

Row | Kd | Binder
43 | 0.63 nM | B1
44 | 0.23 nM | B2
45 | 0.6 nM | B3
46 | 0.24 nM | B4
47 | 0.25 nM | B5
48 | 0.2 nM | B9
49 | 0.31 nM | B6

Molecular target: T6, Her2 (immobilised on the SPR chip) (human, UniProt P04626 23-652, limits assumed)
T6 construct: construct not described; also called human epidermal growth factor receptor 2
Test: SPR, Her2 immobilised on the chip, pH 7.3, 1:1 Langmuir fit [continued]
Description: as §1, §2

Row | Kd | Binder
50 | 4.1 nM | B1
51 | 4.4 nM | B2
52 | 7.3 nM | B3
53 | 2.7 nM | B4
54 | 3.3 nM | B5
55 | 3.3 nM | B6

Molecular target: T3, Her2-Fc
Test: ELISA on coated Her2-Fc; after 24 h in mouse serum at 37 C
Description: as §3, §4

Row | max binding after 24 h [%] | Binder
56 | 97.7% | B1
57 | 96.6% | B2
58 | 100% | B3
59 | 98.6% | B4
60 | 100% | B5
61 | 104% | B9
62 | 106% | B6

Molecular target: T1, hFAP-Fc
Test: SPR, Fc-tagged FAP captured on immobilised protein A, pH 7.3, 1:1 Langmuir fit
Description: as §1, §2

Row | Kd | Binder
63 | 5.8 nM | B10
64 | 4 nM | B11
65 | 3.4 nM | B12
66 | 4.4 nM | B13

Molecular target: T3, Her2-Fc
Test: ELISA on coated Her2-Fc; KD 24 h against KD 0 h, mouse serum
Description: as §3, §4

Row | increase of KD vs target [fold] | Binder
67 | 1.72 fold | B1
68 | 1.14 fold | B2
69 | 1.43 fold | B3
70 | 1.2 fold | B4
71 | 1.19 fold | B5
72 | 1.2 fold | B9
73 | 1.23 fold | B6

Molecular target: T3, Her2-Fc
Test: ELISA on coated Her2-Fc; 0 h in human serum
Description: as §3, §4

Row | Kd | Binder
74 | 0.61 nM | B1
75 | 0.34 nM | B2
76 | 0.84 nM | B3
77 | 0.23 nM | B4
78 | 0.29 nM | B5
79 | 0.34 nM | B9
80 | 0.34 nM | B6

Molecular target: T3, Her2-Fc
Test: ELISA on coated Her2-Fc; 0 h in mouse serum
Description: as §3, §4

Row | Kd | Binder
81 | 0.36 nM | B1
82 | 0.21 nM | B2
83 | 0.42 nM | B3
84 | 0.2 nM | B4
85 | 0.21 nM | B5
86 | 0.17 nM | B9
87 | 0.25 nM | B6
